From patent US20220251236A1 (Boehringer Ingelheim, published 2022)

Molecular target: T1, T CELLS (human, UniProt P07766;P09693)
T1 construct: native, on the surface of purified human T cells; The sheets print only 'T CELLS'; also called human CD3 on purified human T cells; CD3 epsilon/gamma complex
Test: flow cytometry titration on purified human T cells, PE anti-human secondary, x-fold over background
From the text: Cells (T cells or human SCLC cells) were stained with increasing concentrations of two-step purified DLL3/CD3 binding proteins with increasing concentrations in FACS buffer (PBS/0.5% BSA/0.05% sodium azide). Bound molecules were detected with PE-conjugated anti-human secondary antibody (Sigma-Aldrich, #P8047).

T1 sequence (P07766 23-207, chain 1 of 2): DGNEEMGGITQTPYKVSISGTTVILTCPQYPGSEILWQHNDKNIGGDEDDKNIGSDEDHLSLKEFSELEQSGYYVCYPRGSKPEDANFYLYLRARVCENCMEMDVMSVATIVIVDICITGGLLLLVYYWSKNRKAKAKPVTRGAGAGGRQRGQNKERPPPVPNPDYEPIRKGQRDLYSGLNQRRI
T1 sequence (P09693 23-182, chain 2 of 2): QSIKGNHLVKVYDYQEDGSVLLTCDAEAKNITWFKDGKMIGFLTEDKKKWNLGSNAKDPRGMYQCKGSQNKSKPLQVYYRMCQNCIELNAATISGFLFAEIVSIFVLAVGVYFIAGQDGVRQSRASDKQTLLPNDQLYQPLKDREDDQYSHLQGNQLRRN

B1: DLL3#2/CD3#1 (bispecific antibody, human IgG1, kappa, lambda, L234A L235A)
chain 1: DIQMTQSPSAMSASVGDRVTITCRASQGISNYLAWFQQKPGKVPEPLIYAASSLQSGVPSRFSGSGSVTEFTLTISSLQPEDFATYYCLQHNSSPYTFGQGTKLEIKRTVAAPSVFIFPPSDEQLKSGTASVVCLLNNFYPREAKVQWKVDNALQSGNSQESVTEQDSKDSTYSLSSTLTLSKADYEKHKVYACEVTHQGLSSPVTKSFNRGECGGGGSEGKSSGSGSESKSTEGKSSGSGSESKSTGGGGSQVQLVQSGAEVKKPGASVKVSCKASGYTFTSYYMHWVRQAPGQGLEWMGIINPSGGSTSYAQKFQGRVTMTRDTSTSTVYMELSSLRSEDTAVYYCARGEAVGGNYYYYGMDVWGQGTTVTVSSASTKGPSVFPLAPSSKSTSGGTAALGCLVKDYFPEPVTVSWNSGALTSGVHTFPAVLQSSGLYSLSSVVTVPSSSLGTQTYICNVNHKPSNTKVDKRVEPKSCDKTHTCPPCPAPEAAGGPSVFLFPPKPKDTLMISRTPEVTCVVVDVSHEDPEVKFNWYVDGVEVHNAKTKPREEQYNSTYRVVSVLTVLHQDWLNGKEYKCKVSNKALPAPIEKTISKAKGQPREPQVYTLPPSREEMTKNQVSLWCLVKGFYPSDIAVEWESNGQPENNYKTTPPVLDSDGSFFLYSKLTVDKSRWQQGNVFSCSVMHEALHNHYTQKSLSLSPG
chain 2: EAVVTQEPSLTVSPGGTVTLTCRSSTGAVTTSNYANWVQEKPGQLPRGLIGGTNKRAPWVPARFSGSLLGGKAALTLSGAQPEDEAEYFCALWYSNLWVFGGGTKLTVLGQPKAAPSVTLFPPSSEELQANKATLVCLISDFYPGAVKVAWKADGSPVNTGVETTTPSKQSNNKYAASSYLSLTPEQWKSHRSYSCQVTHEGSTVEKTVAPAECSGGGGSEGKSSGSGSESKSTEGKSSGSGSESKSTGGGGSEVQLVESGGGLVQPGGSLKLSCAASGFTFNTYAMNWVRQAPGKGLEWVARIRSKYNNYATYYADSVKDRFTISRDDSKNTAYLQMNNLKTEDTAVYYCVRHGNFGNSYVSWFAYWGQGTLVTVSAASTKGPSVFPLAPSSKSTSGGTAALGCLVKDYFPEPVTVSWNSGALTSGVHTFPAVLQSSGLYSLSSVVTVPSSSLGTQTYICNVNHKPSNTKVDKRVEPKSCDKTHTCPPCPAPEAAGGPSVFLFPPKPKDTLMISRTPEVTCVVVDVSHEDPEVKFNWYVDGVEVHNAKTKPREEQYNSTYRVVSVLTVLHQDWLNGKEYKCKVSNKALPAPIEKTISKAKGQPREPQVYTLPPSREEMTKNQVSLSCAVKGFYPSDIAVEWESNGQPENNYKTTPPVLDSDGSFFLVSKLTVDKSRWQQGNVFSCSVMHEALHNRFTQKSLSLSPG
notes: Heterodimer of one DLL3 chain and one CD3 chain (scFab-Fc, knob-in-hole)
B1 was tested, and the “EC50 (read off the curve)” value was ~10 nM.
